Laboratory results as given in US20180312579A1 (Genentech, published 2018).

T1: human RSPO3 with C-terminal HA tag, stably expressed in 293 cells (human, UniProt Q9BXY4 22-272)
T1 construct: Whole open reading frame expressed in HEK-293 cells (high, medium, low); FFPE pellets; also called hRSPO3; RSPO3 Hi
T1 sequence: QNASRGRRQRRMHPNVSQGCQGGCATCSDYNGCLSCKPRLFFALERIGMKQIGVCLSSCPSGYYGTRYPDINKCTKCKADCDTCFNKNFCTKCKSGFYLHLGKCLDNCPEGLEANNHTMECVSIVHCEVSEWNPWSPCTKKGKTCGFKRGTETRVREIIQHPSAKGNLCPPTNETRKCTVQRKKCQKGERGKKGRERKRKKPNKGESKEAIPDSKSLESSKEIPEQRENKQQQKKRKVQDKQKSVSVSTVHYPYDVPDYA

T2: FLAG-tagged human RSPO3 (Genentech) (human, UniProt Q9BXY4 22-272)
T2 construct: also called hRSPO3; RSPO3 coated plates; not shown: FLAG tag
T2 sequence: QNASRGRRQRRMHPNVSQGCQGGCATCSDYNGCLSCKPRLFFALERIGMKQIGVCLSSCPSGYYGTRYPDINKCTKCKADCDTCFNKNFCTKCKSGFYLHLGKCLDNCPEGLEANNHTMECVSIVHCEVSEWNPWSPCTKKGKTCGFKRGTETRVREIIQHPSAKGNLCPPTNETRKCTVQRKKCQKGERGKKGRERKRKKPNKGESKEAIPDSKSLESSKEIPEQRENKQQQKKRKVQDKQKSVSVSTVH

T3: cynomolgus RSPO3 (cynomolgus, UniProt A0A2K5UTQ7 22-273)
T3 sequence: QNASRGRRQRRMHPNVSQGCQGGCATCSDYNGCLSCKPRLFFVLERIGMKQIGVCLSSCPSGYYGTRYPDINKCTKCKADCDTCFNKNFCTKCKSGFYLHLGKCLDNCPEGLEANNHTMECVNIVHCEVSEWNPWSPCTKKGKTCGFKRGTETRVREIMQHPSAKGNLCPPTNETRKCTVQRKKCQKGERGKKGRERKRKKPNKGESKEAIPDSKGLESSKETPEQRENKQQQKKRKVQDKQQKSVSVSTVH

T4: mouse RSPO3 (mouse, UniProt Q2TJ95 22-277, limits assumed)
T4 sequence (looked up): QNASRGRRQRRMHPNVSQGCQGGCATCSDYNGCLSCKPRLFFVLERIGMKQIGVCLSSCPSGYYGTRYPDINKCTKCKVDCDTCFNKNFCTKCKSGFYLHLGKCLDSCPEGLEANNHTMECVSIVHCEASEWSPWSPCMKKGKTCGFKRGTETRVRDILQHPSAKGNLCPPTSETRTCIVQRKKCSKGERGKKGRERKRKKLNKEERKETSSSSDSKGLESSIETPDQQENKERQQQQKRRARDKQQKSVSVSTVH

T5: recombinant human RSPO3 (human, UniProt Q9BXY4 22-272)
T5 sequence: T2 sequence

B1: 5D6 (antibody, V domains shown)
VH: EVQLQESGPSLVKPSQTLSLTCSVTGDSITSGYWNWIRKFPGNKFEYMGYISYSGKTYQNPSLKSRISITRDTSKNQYHLQLNSVTTEDTATYYCATYYGYGGPWFAYWGQGTLVTVSA
VL: DIVLTQSPSSMYASLGERVTITCKASQDIDSYLSWFQQKPGKSPKTLIYLTNRLVDGVPSRFSGSGSGQDYSLTISSLEYEDMGIYYCLHYDEFPLTFGAGTKLEIK
notes: Murine; also called monoclonal antibody 5D6; mu5D6
B2: 4H1 (antibody, V domains shown)
VH: EVKLVESGGGFVKPGGSLKLSCAASGFTFSNFAMSWVRQSPEKRLEWVAEINNGGNYAYYQDTVTGRFTISRDNAKNTLYLEMSSLRSEDTAMYFCAREDYVNYEAYFAYWGQGTTLTVSS
VL: SIVMTQTPLSLPVSLGDQASISCRSSQSIVHSNGNTYLEWYLQKPGQSPKLLIYRISNRFSGVPDRFSGSGSGTDFTLKISRVEAEDLGVYYCFQGSHVPYTFGGGTKLEIK
notes: Hybridoma-derived monoclonal (mice or hamsters immunized with hRSPO2 and/or hRSPO3), cloned, expressed and purified; also called monoclonal antibody 4H1
B3: 6E9 (antibody, V domains shown)
VH: QVQLKESGPGLVQPSQSLSITCTVSGFSLTSYGVHWVRQSPGKGLEWLGVIWSGGSTDYNAAFISRLSISKDNSKSQVFFKMNSLQANDTAIYYCARNDGYYYFDYWGQGTTLTVSS
VL: DIKMTQSTSSLSASLGDRVTISCRASQDISNYLNWYQQKPDGTVKLLIYYTSRLHSGVPSRFSGSGSGTDYSLTISNLEQEDIATYFCQQGDTLPPAFGGGTKLEIK
notes: also called monoclonal antibody 6E9

Legend:
[1] = biological target: T1, human RSPO3 with C-terminal HA tag, …; assay: IHC, FFPE 293 cell pellet, RSPO3 Low
[2] = biological target: T6, human RSPO4 with C-terminal HA tag, stably expressed in 293 cells (human, UniProt Q2I0M5 20-234); assay: IHC, FFPE 293 cell pellet, RSPO4 Hi; - = not significant staining
T6 construct: also called hRSPO4; RSPO4 Hi
T6 sequence (Q2I0M5 other isoform, or with tags, fused parts or gaps limits assumed): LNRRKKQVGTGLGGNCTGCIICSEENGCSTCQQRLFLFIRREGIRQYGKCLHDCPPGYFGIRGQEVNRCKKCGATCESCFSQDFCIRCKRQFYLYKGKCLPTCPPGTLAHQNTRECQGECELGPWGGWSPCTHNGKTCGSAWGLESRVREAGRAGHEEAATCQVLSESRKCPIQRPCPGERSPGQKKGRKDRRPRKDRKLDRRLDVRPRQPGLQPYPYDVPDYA

[3] = biological target: T2, FLAG-tagged human RSPO3 (Genentech); assay: competitive binding ELISA: titrated against biotinylated RNF43-Flag (RNF43-ECD) binding to plate-coated hRSPO3; signal = bound RNF43, normalized OD
[4] = biological target: T7, human RSPO1 with C-terminal HA tag, stably expressed in 293 cells (human, UniProt Q2MKA7 21-263); assay: IHC, FFPE 293 cell pellet, RSPO1 Hi; - = not significant staining
T7 construct: also called hRSPO1; RSPO1 Hi
T7 sequence (Q2MKA7 other isoform, or with tags, fused parts or gaps limits assumed): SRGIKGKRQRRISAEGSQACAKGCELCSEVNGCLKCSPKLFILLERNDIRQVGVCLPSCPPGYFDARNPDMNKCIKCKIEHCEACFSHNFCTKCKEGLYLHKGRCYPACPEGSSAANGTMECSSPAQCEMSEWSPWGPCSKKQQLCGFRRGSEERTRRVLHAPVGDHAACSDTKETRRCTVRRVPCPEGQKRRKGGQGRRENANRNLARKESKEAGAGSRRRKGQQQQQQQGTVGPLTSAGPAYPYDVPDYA

[5] = biological target: T1, human RSPO3 with C-terminal HA tag, …; assay: IHC, FFPE 293 cell pellet, RSPO3 Med
[6] = biological target: T2, FLAG-tagged human RSPO3 (Genentech); assay: competitive binding ELISA: antibody titrated against LGR4-Fc (LGR4-ECD) binding to plate-coated hRSPO3; signal = bound LGR4-Fc, OD(450/630)/OD no antibody
Description: To measure the activity of anti-RSPO antibodies in blocking the binding of LGR4 and -5 ECDs to RSPOs, MaxiSorp 384-well microwell plates (Thermo Scientific Nunc, Roskilde, Denmark) were coated with 25 ul/well of 0.5 μg/ml hRSPO2 or hRSPO3 (Genentech) in 50 mM carbonate buffer, pH 9.6, overnight at 4° C. Plates were blocked with at 80 ul/well of 0.5% bovine serum albumin, 15 parts per million Proclin 300 in phosphate buffered saline (PBS), pH 7.4, for 1 hour. Serially diluted anti-RSPO antibodies ([…] in […] serial dilution plus buffer blank) containing 0.1 μg/ml LGR4-Fc or 0.015 μg/ml LGR5-Fc in assay buffer (0.5% BSA, 0.05% polysorbate 20, 15 parts per million Proclin 300 in PBS) were added to the plates at 25 ul/well. After a 2-hour incubation, LGR4-Fc and LGR5-Fc bound to the plates were detected using peroxidase labeled goat F(ab′)2 anti-human Fc (Jackson ImmunoResearch, West Grove, Pa.). After a 1 hour incubation, the substrate 3,3′,5,5′-tetramethyl benzidine (Moss Inc., Pasadena, Md.) was added to the plates and the reaction was stopped by adding 1 M phosphoric acid. Plates were washed with PBS, pH 7.4, containing 0.05% tween 20, between steps and all the incubation steps following the coating step were performed at room temperature on an orbital shaker. Absorbance was read at 450 nm on a multiskan Ascent reader (Thermo Scientific, Hudson, N.H.).

[7] = biological target: recombinant human RSPO2 (human, UniProt Q6UXX9 22-243); assay: cell-based or functional assay
Chain of recombinant human RSPO2 (Q6UXX9 22-243): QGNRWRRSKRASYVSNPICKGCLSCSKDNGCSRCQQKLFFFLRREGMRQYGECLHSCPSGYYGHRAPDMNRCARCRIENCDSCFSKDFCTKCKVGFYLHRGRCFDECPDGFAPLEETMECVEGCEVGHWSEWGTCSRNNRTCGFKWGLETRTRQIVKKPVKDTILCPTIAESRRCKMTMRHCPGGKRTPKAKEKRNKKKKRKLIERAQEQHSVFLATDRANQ

[8] = biological target: mouse RSPO2 (mouse, UniProt Q8BFU0 22-205, limits assumed); assay: cell-based or functional assay
Chain of mouse RSPO2 (Q8BFU0 22-205 limits assumed): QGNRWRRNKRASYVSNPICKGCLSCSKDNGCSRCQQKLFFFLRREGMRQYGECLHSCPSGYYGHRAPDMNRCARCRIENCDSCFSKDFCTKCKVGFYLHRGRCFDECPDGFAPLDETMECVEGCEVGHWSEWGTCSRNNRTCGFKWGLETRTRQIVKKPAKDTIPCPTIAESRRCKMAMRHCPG

[9] = biological target: cynomolgus RSPO2 (cynomolgus, UniProt G7PCH9 22-243); assay: cell-based or functional assay
Chain of cynomolgus RSPO2 (G7PCH9 entry or part of it): as the sequence (Q6UXX9 22-243) above, with V160A, L165P, T178A counted along it

[10] = biological target: T3, cynomolgus RSPO3; assay: cell-based or functional assay
[11] = biological target: T4, mouse RSPO3; assay: cell-based or functional assay
[12] = biological target: T5, recombinant human RSPO3; assay: cell-based or functional assay
[13] = biological target: T1, human RSPO3 with C-terminal HA tag, …; assay: IHC, FFPE 293 cell pellet, RSPO3 Hi

| Binder | percentage of cells staining [1] | binding result [2] | IC50 (read off the curve) [3] | binding result [4] | percentage of cells staining [5] | IC50 (read off the curve) [6] | IC50, WNT luciferase reporter, bivalent antibody [7] | IC50, WNT luciferase reporter, bivalent antibody [8] | IC50, WNT luciferase reporter, bivalent antibody [9] | IC50, WNT luciferase reporter, bivalent antibody [10] | IC50, WNT luciferase reporter, bivalent antibody [11] | IC50, WNT luciferase reporter, bivalent antibody [12] | percentage of cells staining [13] |
| --- | --- | --- | --- | --- | --- | --- | --- | --- | --- | --- | --- | --- | --- |
| B1 | 30% | no binding | ~0.1 µg/mL | no binding | 70% | ~0.1 µg/mL | > 500 nM | > 500 nM | > 500 nM | 0.0003 nM | 0.001 nM | 0.0003 nM | > 95% |
| B2 | 30% | no binding | ~0.08 µg/mL | no binding | 60% | ~0.1 µg/mL | 6.4 nM | > 500 nM | 2.8 nM | 0.29 nM | 0.69 nM | 0.8 nM | 90% |
| B3 | 50% | no binding | ~0.08 µg/mL | no binding | 70% | ~0.1 µg/mL | > 500 nM | > 500 nM | > 500 nM | 6.5 nM | 140 nM | 5.6 nM | > 95% |
